Experiment [1] has as its target Fn14 extracellular domain (recombinant, Cell Sciences). The experiment can be described thus: SPR (Biacore), ratio of KD against free ITEM4. (In general: Surface plasmon resonance follows binding to a sensor surface in real time, without labels.)
The target is the same in experiment [2]. The experiment is described as follows: SPR (Biacore 3000), Fn14 extracellular domain on CM5 chip, equilibrium fit, per nanoparticle.
In experiment [3] the target is human Fn14 on cells (MEF Fn14-V5, U87-Luc/GFP, 231-Luc) (human). The experiment is described as follows: flow cytometry, human U87-Luc/GFP GBM cells. In general terms: Flow cytometry measures light scatter and fluorescence of single cells or particles in a stream.
In experiment [4] the target is Fn14 extracellular domain (recombinant, Cell Sciences). The experiment can be described thus: SPR (Biacore), Fn14 extracellular domain on chip, binding isotherm of RUeq, per nanoparticle.
Experiment [5] has as its target human Fn14 on cells (MEF Fn14-V5, U87-Luc/GFP, 231-Luc) (human). The experiment is described as follows: cell-based or functional assay.
For experiment [6] the target is unchanged. The experiment is described as follows: flow cytometry, 231-Luc cells.
The target in experiment [7] is Fn14 extracellular domain (recombinant, Cell Sciences). The experiment is described as follows: SPR (Biacore), Fn14 chip, nanoparticles first incubated with mouse blood serum.
Experiment [8] shares this target. The experiment is described as follows: SPR (Biacore 3000), Fn14 extracellular domain on CM5 chip, equilibrium fit.
The target in experiment [9] is human Fn14 on cells (MEF Fn14-V5, U87-Luc/GFP, 231-Luc) (human). The experiment can be described thus: flow cytometry, MEF Fn14-V5 cells expressing human Fn14.
Experiment [10] has the same target. The experiment is described as follows: human U87 glioma cells treated with fluorescent particles (FIG. 3C; legend says flow cytometry).

Regarding “CNP-ITEM4 (low): 100 nm PEG-coated polystyrene nanoparticles decorated with a low density of ITEM4”, in experiment [1], the fold higher binding affinity than ITEM4 alone is 15 fold. For the same substance, the Kd (commonly the equilibrium constant for the complex coming apart) in [2] amounted to 0.106 nM. Further, in experiment [3], the fold cellular uptake efficiency against CNP alone is 1.25 fold. In the case of PLGA-PEG10%-ITEM40.1% nanoparticles, the Kd in experiment [4] was 26.5 nM.

“PLGA-PEG10%-ITEM41% nanoparticles (optimized DART nanoparticles)” showed an IC50 (as paclitaxel), viability of 231-Luc cells by MTS assay, 2 h exposure then 24 h in fresh medium (in vitro clearance study), paclitaxel-loaded particles in experiment [5] of 0.13 µM. Moreover, the Kd in [4] amounted to 1.9 nM; in experiment [7] it was 6.1 nM. The fold cellular association efficiency against PLGA-PEG in experiment [6] stood at 2.5 fold. With PLGA-PEG5%-ITEM41% nanoparticles, the Kd in experiment [4] came to 2.4 nM.

As for PLGA-PEG10%-ITEM410% nanoparticles, the Kd in experiment [4] was 2.6 nM.

On to PLGA-PEG1%-ITEM41% nanoparticles, for which the Kd in experiment [4] stood at 3.2 nM. “thiol-modified ITEM4 (ITEM4-SH) (antibody)”: the Kd in experiment [8] came to 1.57 nM. Regarding “CNP-ITEM4 (high): 100 nm PEG-coated polystyrene nanoparticles decorated with a high density of ITEM4”, in experiment [1], the fold higher binding affinity than ITEM4 alone was 65 fold. For the same substance, the fold cellular uptake against CNP in [9] amounted to 2.5 fold. For the same substance, in [2], the Kd was 0.024 nM. In addition, the fold cellular uptake efficiency against CNP alone in experiment [3] amounted to 3.5 fold.

Take “ITEM4 monoclonal antibody (Fn14-specific monoclonal antibody)”: the Kd in [8] came out at 1.62 nM. Take “BPN conjugated with ITEM4 at high density”: in experiment [10], the fold increase in binding to glioma cells against non-targeted BPN is 4.5 fold.

Source of the values: patent US20190328677A1.
